Experimental data published in patent publication US11685901B2, “Compositions and methods for organoid generation and disease modeling” (Salk Institute for Biological Studies, priority 2016, dated 2023).

How the values were obtained:
[1] = tested on: human islet-like organoids; assay: Gaussia luciferase insulin secretion assay in human islet-like organoids; type: cell-based; settings: 10 to 100 per assay
Procedure: Mouse islets, human islets and human islets like organoids were plated in their respective growth media with 10 μg/ml Polybrene® polymer (Santacruz). Viruses were then added. After overnight culture, cells were placed in fresh growth media. […] Then, insulin secretion assays were performed. […] The cells were then incubated in KRBB (100 μl/well) with 3 mM for 30 min and then sequentially incubated with 20 mM glucose with or without 100 nM Exendin-4 or 3 mM glucose with 20 mM KCl (100 μl/well). To determine Gaussia Luciferase activity as indicator of insulin secretion levels, 10 μl of samples are used for Luciferase assay using Pierce Gaussia Luciferase Flash Assay Kit (Prod #16159, Thermo Scientific).

[2] = tested on: human islet-like organoids; assay: hIAPP toxicity, propidium iodide staining of islet-like organoids; type: cell-based
Description: FIG. 7 is a schematic showing modeling of human Type 2 diabetes in a dish. Generation of functional human organs such as a liver, pancreas, and islets provides new therapeutic strategies in drug-screening and modeling of human type 2 diabetes.
Generation of functional human organs according to methods described herein provides new strategies for drug-screening and disease modeling. Specifically, functional organoids can be used as models of type 2 diabetes for drug screening (FIG. 7).

INS-1 cells = assay: Proinsulin-NanoLuc Gaussia luciferase insulin secretion assay in INS-1 cells; type: cell-based, rat; settings: INS-1 stably expressing Proinsulin-NanoLuc; G20 mM + 100 nM Ex4; 20 mM KCl
Procedure: INS-1 cells were infected with the virus by spinfection (800 g, 1 hour at 37 degrees Celsius) and then changed to fresh INS-1 growth media. Seventy-two (72) hours after transfection, INS-1 cells were treated with 5 μg/ml Blasticidin (Invitrogen) for 7 days to select for Proinsulin-NanoLuc expressing cells. For insulin secretion assay, the cells (5×10^4-1×10^5 cells/well in 96 well) were pre-cultured in 3 mM glucose KRBB (100 μl/well). The cells were then incubated in KRBB (100 μl/well) with 3 mM and then sequentially incubated with 20 mM glucose with or without 100 nM Exendine-4 or 3 mM glucose with 20 mM KCl (100 μl/well). To determine Gaussia Luciferase activity as indicator of insulin secretion levels, 10 μl of samples are used for Luciferase assay using Pierce Gaussia Luciferase Flash Assay Kit (Prod #16159, Thermo Scientific).

[3] = tested on: hiPSC-derived islet organoids; assay: Gene expression (qPCR) in hiPSC-derived islet organoids treated with WNT proteins; type: cell-based, human; settings: for ERRγ-mitochondrial metabolic pathway: FIGS. 12A-12H; for Esrrg gene expression / expression of mitochondrial genes involved in oxidative phosphorylation (Cox7a2, Ndufa1, Ndufa7), lactate dehydrogenase (Ldha) and Fltp: organoids generated in the absence of hADSC or HUVECs, increasing doses rhWNT4 0-200 ng/ml, rhWNT5a 0-400 ng/ml
Procedure: Human PSCs, including iPSC or ESC, were initially cultured in matrigel-coated plates (2 dimensional (2D) cultures. Cells were then treated with Accutase (Innovative Cell Technologies, Inc., San Diego, Calif.) to generate a single cell suspension, washed with PBS and centrifuged at 1000-1300 rpm for 5 minutes to pellet cells. Cells were resuspended with 3DKG Stem TeSR™ Base Medium (Stemcell Technologies, Cambridge, Mass.) with 10 μM Y-27632 (a RHO/ROCK pathway inhibitor compound) and cultured for an additional for 5 to 7 days until PSC sphere growth reached 50-100 μm diameter. Media was then replaced with differentiation media supplemented with 0.015% Kelcogel and 0.3% Methylcellulose. The culture medium was changed to differentiation medium ([…]) containing 100 ng/ml human Activin (R&D Systems), 25 ng/ml recombinant human Wnt3a (R&D Systems) or 3 μM CHIR99021, a glycogen synthase kinase GSK-3 inhibitor (Axon Medchem, Reston, Va.; or Selleckchem) for 1 day and then to differentiation medium (S1) containing 100 ng/ml human Activin for another 2 days (Stage 1, Pancreatic Endoderm). Subsequently, the medium was replaced with differentiation medium (S2) containing 50 ng/ml FGF7 (R&D Systems) for 2 days, and then with differentiation medium (S3) containing 50 ng/ml FGF7, 0.25 μM SANT-1 (Sigma), 1 μM Retinoic Acid (Sigma), 100 nM LDN193189 (an ALK2 and ALK3 inhibitor, Sigma) and 100 nM α-Amyloid Precursor Protein Modulator TPB for 3 days. Subsequently, this medium was replaced with differentiation medium (S4) containing 0.25 μM SANT-1, 50 nM Retinoic Acid, 10 μM Alk5 inhibitor II, 1 μM T3 for 3 days. Subsequently, the medium was replaced with differentiation medium (S5) containing 100 nM LDN193189, 100 nM Gamma Secretase inhibitor XX GSiXX (Millipore) 10 μM Alk5 inhibitor II, 1 μM T3 for 7 days. Subsequently, the medium was replaced with differentiation medium (S5) containing 10 uM Trolox (Calbiochem), 2 μM R428 (Selleckchem), 1 mM N-acetyl cysteine, 10 μM Alk5 inhibitor II, 1 μM T3 for an additional 7 to 20 days. After confirmation of the insulin gene expression by either reporter expression or qPCR (typically on day 20-30), the medium was changed to differentiation medium (S5) containing 10 μM Trolox (Calbiochem), 2 μM R428 (Selleckchem), 1 mM N-acetyl cysteine, 10 μM Alk5 inhibitor II, 1 μM T3 and 100 ng/ml recombinant human (rh)Wnt4 (R&D Systems), 400 ng/ml rhWnt5a, or 50% Wnt5a conditioned medium for 1-20 days. Wnt5a conditioned medium was prepared by culturing an L-Wnt5a cell line (ATCC, CRL-2814) in DMEM with 10% FBS, 1% Penicillin-streptomycin for 4 days after cells had reached 70-100% confluence in T175-T225 Frasko cell culture flasks.
Total RNA was extracted using TRIzol reagent (Invitrogen) and RNeasy KIT (Qiagen). Reverse transcription was performed with a SuperScript III First-Strand Synthesis System kit (Invitrogen) or PrimeScript RT reagent kit (TAKARA). Real time quantitative RT-PCR (qPCR) was performed using SYBR Green (Bio-Rad).
(FIG. 12A). […] In addition, mitochondrial genes involved in oxidative phosphorylation (Cox7a2, Ndufa1, Ndufa7), lactate dehydrogenase (Ldha) and Fltp (a Wnt/planar cell polarity (PCP) effector and reporter gene) were induced in hiPSC-derived islet organoids that were generated in the absence of supporting hADSC or HUVECs, in response to increasing doses of rhWNT4 (0, 10, 25, 50, 100, 200 ng/ml) and rhWNT5a (0, 25, 50, 100, 200, 400 ng/ml), (FIG. 12C). Mitochondrial (Mitotracker; Mito-Red) and insulin (Insulin-GFP) levels were increased in hiPSC-derived islet organoids (day 27) after 8 days treatment with PBS or WNT4 (100 ng/ml). (FIG. 12D). Human iPSC-derived islet organoids (day 27) were generated after 8 days treatment with PBS or WNT4 (100 ng/ml). (FIG. 12E). […]

[4] = tested on: hiPSC-derived islet organoids; assay: Fluorescence imaging and FACS analysis of hiPSC-derived islet organoids (Mitotracker, Insulin-GFP); type: cell-based, human; settings: organoids day 27, 8 days treatment; for Insulin production (FACS): rhWNT4 100 ng/ml, rhWNT5a 400 ng/ml, conditioned media 50%, compared with PBS and control conditioned media
Procedure: FIGS. 12A-12H show a set of bar graphs and images illustrating the role of WNT proteins in the metabolic maturation of iPSC-derived islet organoids. […] FIG. 12B is a bar graph showing the induction of Esrrg gene expression in hiPSC-derived islet organoids, generated in the absence of supporting hADSC or HUVECs, in response to increasing doses of WNT4 (0, 10, 25, 50, 100, 200 ng/ml) and WNT5a (0, 25, 50, 100, 200, 400 ng/ml). FIG. 12C is a bar graph showing the induction of mitochondrial genes involved in oxidative phosphorylation (Cox7a2, Ndufa1, Ndufa7), lactate dehydrogenase (Ldha) and Fltp (a Wnt/planar cell polarity (PCP) effector and reporter gene) in hiPSC-derived islet organoids, generated in the absence of supporting hADSC or HUVECs, in response to increasing doses of WNT4 (0, 10, 25, 50, 100, 200 ng/ml) and WNT5a (0, 25, 50, 100, 200, 400 ng/ml). […] FIGS. 12F, 12G, and 12H show a set of bar graphs illustrating the results of FACS analyses of hiPSC-derived islet organoids (day 27) after 8 days treatment with PBS, WNT4 (100 ng/ml), WNT5a (400 ng/ml), control fibroblast conditioned media (50%), or WNT5a secreting fibroblast conditioned media (50%). The WNT proteins used were recombinant human (rh) proteins.
Human PSCs, including iPSC or ESC, were initially cultured in matrigel-coated plates (2 dimensional (2D) cultures. Cells were then treated with Accutase (Innovative Cell Technologies, Inc., San Diego, Calif.) to generate a single cell suspension, washed with PBS and centrifuged at 1000-1300 rpm for 5 minutes to pellet cells. Cells were resuspended with 3DKG Stem TeSR™ Base Medium (Stemcell Technologies, Cambridge, Mass.) with 10 μM Y-27632 (a RHO/ROCK pathway inhibitor compound) and cultured for an additional for 5 to 7 days until PSC sphere growth reached 50-100 μm diameter. Media was then replaced with differentiation media supplemented with 0.015% Kelcogel and 0.3% Methylcellulose. […]

[5] = tested on: hiPSC-derived islet organoids; assay: Insulin secretion assay (human c-peptide ELISA) of hiPSC-derived islet organoids; type: cell-based; settings: organoids day 22, 100 ng/ml for 12 days, G3 mM, G20 mM, KCL20 mM, without hADSC and HUVECs
Procedure: Insulin release from intact islets was monitored using batch incubation methods (Yoshihara et al., 2010, Nat. Commun. 1:127). Briefly, overnight-cultured isolated pancreatic islets (RPMI-1640 supplemented with 10% (v/v) fetal bovine serum and 1% (v/v) Antibiotic-Antimycotic (Gibco)) were pre-cultured at 37° C. for 30 min (Krebs-Ringer bicarbonate buffer (KRBB) containing 129.4 mM NaCl, 3.7 mM KCl, 2.7 mM CaCl2, 1.3 mM KH2PO4, 1.3 mM MgSO4, 24.8 mM NaHCO3 (equilibrated with 5% CO2, 95% O2, pH7.4), 10 mM HEPES and 0.2% (v/v) BSA (fraction V, Sigma) (KRBH) with 3 mM glucose). Pancreatic islets were then incubated in KRBH buffer (500 μl/10 islets) with 3 mM or 20 mM glucose to determine insulin secretion levels. After 30 min, islets were pelleted by centrifugation and insulin levels determined by ELISA (Rat/mouse Insulin ELISA KIT (Millipore) and Human Insulin ELISA KIT (Millipore) for mouse and human islets, respectively). For human iPSC derived cells, the cells (1×10^6 cells/well in 24 well) were pre-cultured in 3 mM glucose KRBH buffer (500 μl/well). The cells were then incubated in KRBB (200 μl/well) with 3 mM or 20 mM glucose to determine c-peptide secretion levels as indicator of insulin secretion levels. After 30 min, the cells were pelleted by centrifugation and c-peptide levels were determined by human c-peptide ELISA KIT (Millipore).

Molecule: GLP-1: incretin
- stimulated insulin secretion of pooled organoids (secreted luciferase) [1]: enhanced GSIS

Molecule: hIAPP: human amyloid polypeptide, an inducer of β cell loss in type 2 diabetic patients (KCNTATCATQRLANFLVHSSNNFGAILSSTNVGSNTY; Islet amyloid polypeptide; UniProt P10997 34-70, looked up)
- G0/G1 arrest ([2]; 24 hours): dose-dependently induced G0/G1 arrest
- apoptosis (propidium iodide staining in G0/G1 stage cells) ([2]; increasing concentrations): induces apoptosis

Molecule: Exendin-4
- Luciferase secretion (insulin secretion) (INS-1 cells): increased

Molecule: [Cl-].[K+] [potassium chloride]
- stimulated insulin secretion of pooled organoids (secreted luciferase) [1]: robust
- Luciferase secretion (insulin secretion) (INS-1 cells): increased

B1: rhWNT5a: recombinant human Wnt5a protein (protein, UniProt P41221 62-380, looked up)
Protein Wnt-5a: IIGAQPLCSQLAGLSQGQKKLCHLYQDHMQYIGEGAKTGIKECQYQFRHRRWNCSTVDNTSVFGRVMQIGSRETAFTYAVSAAGVVNAMSRACREGELSTCGCSRAARPKDLPRDWLWGGCGDNIDYGYRFAKEFVDARERERIHAKGSYESARILMNLHNNEAGRRTVYNLADVACKCHGVSGSCSLKTCWLQLADFRKVGDALKEKYDSAAAMRLNSRGKLVQVNSRFNSPTTQDLVYIDPSPDYCVRNESTGSLGTQGRLCNKTSEGMDGCELMCCGRGYDQFKTVQTERCHCKFHWCCYVKCKKCTEIVDQFVCK
- ERRγ-mitochondrial metabolic pathway [3]: activate
- Esrrg gene expression [3]: induced
- expression of mitochondrial genes involved in oxidative phosphorylation (Cox7a2, Ndufa1, Ndufa7), lactate dehydrogenase (Ldha) and Fltp [3]: induced
- Insulin production (FACS) [4]: found

B2: rhWNT4: recombinant human (rh)Wnt4 protein (R&D Systems) (protein, UniProt P56705 23-351, looked up)
Protein Wnt-4: SNWLYLAKLSSVGSISEEETCEKLKGLIQRQVQMCKRNLEVMDSVRRGAQLAIEECQYQFRNRRWNCSTLDSLPVFGKVVTQGTREAAFVYAISSAGVAFAVTRACSSGELEKCGCDRTVHGVSPQGFQWSGCSDNIAYGVAFSQSFVDVRERSKGASSSRALMNLHNNEAGRKAILTHMRVECKCHGVSGSCEVKTCWRAVPPFRQVGHALKEKFDGATEVEPRRVGSSRALVPRNAQFKPHTDEDLVYLEPSPDFCEQDMRSGVLGTRGRTCNKTSKAIDGCELLCCGRGFHTAQVELAERCSCKFHWCCFVKCRQCQRLVELHTCR
- functional maturation based on secretion of human c-peptide ([5]; listed as Wnt4): sufficient to induce in vitro functional maturation
- functional maturation based on secretion of human c-peptide ([5]; listed as rhWnt4): functional maturation
- ERRγ-mitochondrial metabolic pathway [3]: activate
- Esrrg gene expression [3]: induced
- expression of mitochondrial genes involved in oxidative phosphorylation (Cox7a2, Ndufa1, Ndufa7), lactate dehydrogenase (Ldha) and Fltp [3]: induced
- Mitochondrial (Mitotracker; Mito-Red) and insulin (Insulin-GFP) levels ([4]; 100 ng/ml): increased
- Insulin production (FACS) [4]: found
